{
  "source": "patent US20020037538A1",
  "about": "“Compositions, kits, and methods for identification, assessment, prevention, and therapy of psoriasis” (priority 2000, published 2002)",
  "molecules": {"B1": {"name": "rhIL-11: recombinant human IL-11, experimental immune modulatory cytokine (protein, UniProt P20809 22-199, looked up)", "Interleukin-11": "PGPPPGPPRVSPDPRAELDSTVLLTRSLLADTRQLAAQLRDKFPADGDHNLDSLPTLAMSAGALGALQLPGVLTRLRADLLSYLRHVQWLRRAGGSSLKTLEPELGTLQARLDRLLRRLQLLMSRLALPQPPPDPPAPPLAPPSSAWGGIRAAHAILGGLHLTLDWAVRGLLLLKTRL"}},
  "key": {"[1]": {"test_system": "marker genes in psoriatic lesional skin", "test": "GeneChip marker analysis of lesional skin biopsies during rhIL-11 or cyclosporin A treatment (Example 3)", "format": "in vivo, human", "quoted_text": "Labeled RNA was prepared from clones containing a T7 RNA polymerase promoter site by incorporating labeled ribonucleotides in an in vitro transcription (IVT) reaction. Either biotin-labeled or fluorescein-labeled UTP and CTP (1:3 labeled to unlabeled) plus unlabeled ATP and GTP were used for the reaction with 2500 U of T7 RNA polymerase. Following the reaction, unincorporated nucleotide triphosphates were removed using a size-selective membrane (Mircrocon-100, Amicon, Beverly, Mass.). The total molar concentration of RNA was based on a measurement of the absorbance at 260 nm. Following quantitation of RNA amounts, RNA was fragmented randomly to an average length of approximately 50 bases by heating at 94° C. in 40 mM Tris-acetate pH 8.1, 100 mM potassium acetate, 30 mM magnesium acetate, for 30 to 40 min. Fragmentation reduces possible interference from RNA secondary structure, and minimizes the effects of multiple interactions with closely spaced probe molecules. For material made directly from cellular RNA, cytoplasmic RNA was extracted from cells by the method of Favaloro et al. ((1980) Methods Enzymol. 65: 718-749), and poly (A) RNA was isolated with an oligo dT selection step (PolyAtract, Promega, Madison, Wis.). […] The total molar concentration of labeled cRNA was determined from the absorbance at 260 nm and assuming an average RNA size of 1000 ribonucleotides. […]\nThe hybridization solutions contained 0.9 M NaCl, 60 mM NaH2PO4, 6 mM EDTA, and 0.005% Triton X-100, adjusted to pH 7.6 (referred to as 6×SSPE-T). […] When biotin-labeled RNA was used, the hybridized RNA was stained with a streptavidin-phycoerythrin conjugate (Molecular Probes, Eugene, Oreg.) prior to reading. […] The arrays were read using a scanning confocal microscope made for Affy metrix by Molecular Dynamics (commercially available through Affymetrix, Santa Clara, Calif.) The scanner uses an argon ion laser as the excitation source, with the emission detected by a photomultiplier tube through either a 530 nm bandpass filter (fluorescein), or a 560 nm longpass filter (phycoerythrin). […]"}, "[2]": {"test_system": "proinflammatory cytokine production", "details": "in part through inhibition of NF-κKB nuclear translocation; Trepicchio et al. (1997); cited from earlier work"}, "[3]": {"test_system": "165 genes differentially expressed between lesional and non-lesional skin", "test": "Gene chip / self-organizing map analysis of lesional skin over the course of drug treatment (Example 4)", "format": "in vivo, human", "source_text": "(§1) Patients with extensive plaque psoriasis (>10% body surface area affected) were considered eligible for entry into the study. […] At the start of enrollment, a psoriatic plaque was chosen for weekly assessment of lesion severity scores by the study coordinator. A 6 mm punch biopsy was taken of this lesional skin prior to rhIL-11 or cyclosporin treatment and at weeks 1, 4, 8 and 12 during IL-11 or cyclosporin treatment. In addition, prior to initiation of treatment, a 6 mm punch biopsy was taken from uninvolved skin at a location of the patient's choosing. Biopsies were equally divided for immunohistochemical analysis and for RNA preparation. Normal skin was obtained from healthy volunteers.\nTotal RNA was isolated from 6 mm full thickness skin biopsies using the RNeasy mini kit (Qiagen, Hilden, Germany). 2 μg total RNA was converted to cDNA by priming with an oligo-dT primer containing a T7 RNA polymerase promoter at the 5′ end. RNA was reverse transcribed with 200 units Superscript RT II at 50° C. for 1 hour in 1×first-strand buffer, 10 mM DTT and 0.5 mM each dNTP (Gibco BRL, Gaithersburg, Md.). […] RNA was concentrated and the amount measured using a spectrophotometer. […]"}, "plaque psoriasis": {"test_system": "plaque psoriasis", "test": "Response to therapy by clinical and histopathological criteria (Example 4)", "format": "in vivo, human", "details": "treated for 8 weeks", "source_text": "as §1\nSections were reacted with antibodies to CD3, CD8, keratin 16, Ki67, ICAM-1, or HLA-DR and processed for immunohistochemistry as previously described (Trepicchio et al., supra). Computer-assisted image analysis was used to quantify epidermal thickness and the number of CD3+, CD8+, or Ki67+ cells in tissue sections as described. The grading system used to measure clinical disease activity was the PSI score, described above.\nRhIL-11 was administered to patients by a subcutaneous route at either a dose of 5 ug/kg/day or a single 1 mg or 2 mg dose administered once weekly. Cyclopsorin A was administered at a dose of 5 μg/kg/day (Gottlieb et al., supra)."}, "[4]": {"test_system": "S100A12, HBP17, K16, CCNF, SCYA2, PRKMK3, ID4, CST6 and TNXA mRNA", "test": "Quantitative RT-PCR of early responding genes in treated patients", "format": "in vivo, human", "details": "responding patients but not non-responding patients", "procedure": "Quantitative RT-PCR was performed as previously described (Trepicchio et al., supra). RNA samples from patient biopsies were treated with 10U of RQ1 DNase I (Promega) for 30 minutes at 37° C. […] Sequence-specific amplification was detected as an increased fluorescent signal of 6-FAM during the amplification cycle. Quantitation of gene-specific message levels was based on a comparison of the fluorescent intensity in the unknown mRNA sample to the fluorescent intensity from a standard curve of known mRNA levels. […] Levels of gene-specific messages were graphed as normalized message units as determined from the standard curve. […]\nQuantitative measures of gene expression changes were statistically evaluated using the JMP statistical discovery software package (SAS Institute, Inc., Cary, N.C.). […] Differences between non-lesional to lesional skin were analyzed using 2-tailed paired T-test. […]\nChanges in gene expression levels that precede clinical improvement may identify genes that play a potential causative role in disease progression or may be early markers of clinical efficacy. Quantitative RT-PCR was used to analyze gene expression changes for these early responding genes in a larger patient population. […]"}, "psoriasis patients": {"test_system": "psoriasis patients", "details": "Trepicchio et al. (1999); cited from earlier work"}, "psoriatic plaque": {"test_system": "psoriatic plaque", "test": "Psoriasis Severity Index (PSI) score at the lesion biopsy site during treatment (Example 3)", "format": "in vivo, human", "details": "for PSI score: seen at weeks 8 and 12", "procedure": "Three subjects with extensive psoriasis (>10% body surface area affected) were treated with […] of rhIL-11 subcutaneously every day for 8 weeks (Trepicchio et al. (1999) J. Clin. Invest. 104:1527-1537). The dose selection of rhIL-11 was based on the outcome of a clinical trial in subjects with Crohn's disease, where biological activity was observed. […] Upon enrollment, a psoriatic plaque was chosen for weekly assessment of lesion severity. […] In addition, before initiation of treatment, a 6-mm punch biopsy was taken from uninvolved skin at a location of the patent's choosing. Biopsies were equally divided for immunohistochemical analysis and for RNA preparation. Global clinical assessment of each subject was based on the Psoriasis Area and Severity Index (PASI) score in each subject before and during therapy as described previously (Gottlieb, et al. (1992) J. Invest. Dermatol. 98:302-309). The grading system used to measure local disease activity at the lesion biopsy site was the Psoriasis Severity Index (PSI). This index grades individual psoriasis lesions for scale, erythema, and induration on a 0- to 6- point scale for each parameter (0, absent, 1, trace, 2, mild, 3, mild to moderate, 4, moderate, 5, moderate to severe, and 6, severe). The final score is the sum of the individual parameters for a range of 0-18 (Fredriksson and Pettersson (1978) Dermatologica 157: 238-244; and Coven et al. (1997) Arch. Dermatol. 133:1514-1522). Histopathological assessment was performed on one-half of the 6-mm punch biopsy. […] Sections were reacted with antibodies to CD3, CD8, K16, Ki67, ICAM-1, or HLA-FR and processed for immunohistochemistry as described previously. Computer-assisted image analysis was used to quantify epidermal thickness and the number of CD3+, CD8+, or Ki67+ cells in tissue sections as described (Gottlieb et al. (1995) Nat. Med. 1:442-447)."}},
  "data": [
    {"molecule": "B1", "values": [
      {"measurement": "expression levels of the bulk of the markers", "setting": "[1]; Patient #202, rhIL-11, throughout the study", "result": "similarly unchanged"},
      {"measurement": "expression of the preponderance of the markers", "setting": "[1]; Patients #203 and 208, rhIL-11, by week 8 compared to the beginning of the study", "result": "decrease in expression at least two-fold"},
      {"measurement": "expression of the markers", "setting": "[1]; Patients #203 and 208, rhIL-11, by week 12 compared to the beginning of the study", "result": "nearly all of the markers decreased in expression"},
      {"measurement": "proinflammatory cytokine production", "setting": "[2]", "result": "reduce proinflammatory cytokine production"},
      {"measurement": "differentially regulated genes that returned to normal or uninvolved levels at time points preceding clinical improvement", "setting": "[3]; FIG. 6, Group I", "result": 36, "unit": "genes"},
      {"measurement": "levels of expression of 36 genes including HBP17, SCYA2, PRKMK3, GNA15, PHB and MTX", "setting": "[3]; responding patients at week 1 of therapy, not in non-responding patients", "result": "change significantly"},
      {"measurement": "patients considered to have responded to therapy", "setting": "plaque psoriasis", "result": "8 out of 15"},
      {"measurement": "earliest time at which changes in gene expression were observed", "setting": "[4]", "result": 1, "unit": "week"},
      {"measurement": "activity in psoriasis patients", "setting": "psoriasis patients", "result": "improve clinical and histopathological scores"},
      {"measurement": "response to the treatment as assessed by PSI scores", "setting": "psoriatic plaque; Patient #202, rhIL-11", "result": "did not respond to the treatment"},
      {"measurement": "PSI scores", "setting": "psoriatic plaque; Patient #202, rhIL-11 treatment, throughout the course of the study", "result": "9-11"},
      {"measurement": "PSI score", "setting": "psoriatic plaque; rhIL-11, first value of 'respectively' (Patient #203)", "result": 4},
      {"measurement": "PSI score", "setting": "psoriatic plaque; rhIL-11, second value of 'respectively' (Patient #208)", "result": 5}
    ]}
  ]
}
